Experimental data published in patent publication US20070248617A1 (published 2007).

Biological target: T1, recombinant human RANK-hFc fusion protein (human, UniProt Q9Y6Q6 30-212, limits assumed)
T1 construct: also called hRANK; not shown: human Fc (hFc)
T1 sequence (looked up): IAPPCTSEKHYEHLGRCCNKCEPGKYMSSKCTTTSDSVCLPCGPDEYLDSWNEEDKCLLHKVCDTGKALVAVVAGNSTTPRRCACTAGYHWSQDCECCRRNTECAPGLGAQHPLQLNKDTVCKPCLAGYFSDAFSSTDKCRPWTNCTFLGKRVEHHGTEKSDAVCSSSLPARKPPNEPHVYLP
Test: ELISA, human RANKL coated at 10 µg/ml, serial dilutions of human RANK-hFc, anti-hFc-HRP detection
Protocol: To test whether the antibodies generated in mice have neutralizing activity, in vitro binding assays for both mouse and human RANKL and their cognate receptors mouse RANK and human RANK were established. ELISA plates were therefore coated with 10 μg/ml of either mouse or human RANKL protein and incubated with serial dilutions of a recombinant mouse RANK-hFc fusion protein or a recombinant human RANK-hFc fusion protein, respectively. Bound protein was detected with a horse raddish peroxidase conjugated anti-hFc antibody. […] Sera of mice immunized with mRANKL(155-174) coupled to Qβcapsid were then tested for their ability to inhibit the binding of mouse and human RANKL protein to their respective receptors. ELISA plates were therefore coated with either mouse or human RANKL protein at a concentration of 10 μg/ml, and co-incubated with serial dilutions of a pool of mouse sera from day 35 and 0.35 nM mouse or human RANK-hFc fusion protein, respectively. Binding of receptor to immobilized RANKL protein was detected with horse raddish peroxidase conjugated anti-hFc antibody.

- binding result: binds
B1: human RANKL protein (ligand, UniProt O14788 140-317, looked up)
chain: IRAEKAMVDGSWLDLAKRSKLEAQPFAHLTINATDIPSGSHKVSLSSWYHDRGWAKISNMTFSNGKLIVNQDGFYYLYANICFRHHETSGDLATEYLQLMVYVTKTSIKIPSSHTLMKGGSTKYWSGNSEFHFYSINVGGFFKLRSGEEISIEVSNPSLLDPDQDATYFGAFKVRDID
notes: also called hRANKL
